Data published in patent publication US20200407708A1.

Molecular target: streptavidin (UniProt P22629)
Experiment: gel shift with streptavidin

Chain of UniProt P22629 (P22629 37-163 limits assumed): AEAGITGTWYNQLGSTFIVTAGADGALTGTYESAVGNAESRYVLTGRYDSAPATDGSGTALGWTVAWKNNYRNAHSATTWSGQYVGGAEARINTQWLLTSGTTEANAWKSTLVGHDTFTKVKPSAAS

## biotinylated SpyCatcher002 (S50C)
  percent of protein biotinylated (shifted in the presence of streptavidin): 90%
